B1: Sec20 SNARE domain (aa 133-198) (domain or fragment)
chain: QTSSSITESLMGISRMMSQQVQQSEEAMQTLVSSSRTLLDANEEFKSMSGTIQLGRKLITKYNRRE
B3: syntaxin 18 SNARE domain (aa 229-312) (domain or fragment)
chain: EEIQMFEQENQRLIGEMNSLFDEVRQIEGKVVEISRLQEIFTEKVLQQETEIDSIHQLVVGATENIKEGNEDIREAIKNNAGFR

Assay [1] has as its target B3. The experiment in a line: SEC. For orientation: SEC sorts molecules by how far they enter the pores of the column.
The target in assay [2] is B3. The experiment in a line: native gel or EMSA + SEC. For orientation: Mobility shift assays separate free from complexed probe on a gel.
Assay [3] has as its target synaptobrevin 2 (aa 1-96) (Rattus norvegicus, UniProt P63045 1-96). The experiment in a line: native gel or EMSA.
The target in assay [4] is B1. The experiment in a line: SEC.

Chain of synaptobrevin 2 (aa 1-96) (P63045 1-96): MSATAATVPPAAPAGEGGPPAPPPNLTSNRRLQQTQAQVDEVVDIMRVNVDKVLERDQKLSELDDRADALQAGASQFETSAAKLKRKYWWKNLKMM

For the molecule B1, the binding result in assay [1] is “binds”.

B2: U_SNAP (Sec20, aa 133-198; Use1, aa 174-239) (other)
chain: QTSSSITESLMGISRMMSQQVQQSEEAMQTLVSSSRTLLDANEEFKSMSGTIQLGRKLITKYNRREGLSVSPSNKLKSSDAYKKAWGNNQDGVVASQPARVVDEREQMAISGGFIRRVTNDQRHQGLQEKLAEEMLGLARSLKTNTLAAQSVIKKDNQTLSHSLKMADQNLEKLKLESERLEQHAQK
For B2, in assay [2], the binding result was “binds”. As to B3, in assay [3], the binding result is recorded as “binds”.

B4: Use1 SNARE domain (aa 174-239) (domain or fragment)
chain: QRHQGLQEKLAEEMLGLARSLKTNTLAAQSVIKKDNQTLSHSLKMADQNLEKLKLESERLEQHAQK
In the case of B4, the binding result in assay [1] and in assay [4] was “binds” each time.

These data come from article doi:10.1101/2024.04.24.590896 (bioRxiv, 2024).
